In patent US20230285509A1, “INTERFERON-BASED DISEASE TREATMENT METHOD” (XIAMEN AMOYTOP BIOTECH CO., LTD., priority 2019, published 2023):
“And” between values parts separate entries of the source, which are not always exact repeats. Equal entries are not always repeated.

Tests used:
liver cancer H22 = test: Liver cancer H22 in mice, tumor volume (Example 7); assay type: in vivo, BALB/c mice; details: 18 days after tumor inoculation; once a week; PEG-mIFN-α4 1.0 μg/w sc, gemcitabine 60 mg/kg/w ip
Protocol: The average tumor volume for each individual group was calculated based on the formula V=1/2ab^2 (a and b represent length and width (mm) respectively) by measuring the tumor diameter, and the anti-tumor effect was observed dynamically.
Statistical tests were all two-sided tests.

lung cancer LLC = test: Lung cancer LLC in mice, tumor volume (Example 8); assay type: in vivo, C57BL/6N mice; details: 24 days after tumor inoculation; once a week; PEG-mIFN-α4 1.0 μg/w sc, gemcitabine 60 mg/kg/w ip
Description: (§1) The anticancer agent was gemcitabine (Jiangsu Hansoh Pharmaceutical Group Co., Ltd). […] Statistical tests were all two-sided tests.

colorectal cancer CT26 = test: Colorectal cancer CT26 in mice, tumor volume (Example 9); assay type: in vivo, BALB/c mice; details: day 43; once a week; PEG-mIFN-α4 1.0 μg/w sc, gemcitabine 60 mg/kg/w ip
Description: as §1

melanoma B16 = test: Melanoma B16 in mice, tumor volume (Example 10); assay type: in vivo, C57BL/6N mice; details: 14 days after tumor inoculation; once a week; PEG-mIFN-α4 1.0 μg/w sc, gemcitabine 60 mg/kg/w ip
Description: as §1

[1] = system: transplanted liver cancer H22; test: Transplanted liver cancer H22 in mice, survival, gemcitabine combination (Example 11); assay type: in vivo, BALB/c mice; details: gemcitabine 60 mg/kg ip once a week
Protocol: After being divided into groups, the corresponding drugs or saline were administered. […] With respect to the intermittent administration, it was administered once every 48 hours, for three times continuously, before discontinuation of 144 hours. Gemcitabine was administered by intraperitoneal injection at a dose of 60 mg per kilogram of body weight each time, once a week. The normal saline control group was given an equal volume of normal saline. The PEG-mIFN-α4 intermittent administration combined with gemcitabine group was given gemcitabine during the first injection of PEG-mIFN-α4, and then administered with gemcitabine once a week thereafter. All groups were subjected to survival analysis to compare differences between groups.

[2] = system: mouse fibroblast/encephalomyocarditis virus (L929/EMCV); test: Mouse fibroblast/encephalomyocarditis virus (L929/EMCV) cytopathic inhibition method; assay type: cell-based; details: commercial mIFN-α4 (R&D) as the standard
Protocol: (§2) The bacterial endotoxin content of the deglycosylated mIFN-α4 stock solution was determined by the Limulus reagent method as lower than 60 EU/mg. specific activity was determined as 5.4×10^8 U/mg by using the commercial mIFN-α4 (R&D, catalog number 12115-1) as the standard, and by using the mouse fibroblast/encephalomyocarditis virus (L929/EMCV) cytopathic inhibition method.
as §2, with “PEG-mIFN-α4” for “deglycosylated mIFN-α4”, “15” for “60”, “Specific” for “specific”, “6.1×10^6” for “5.4×10^8”

[3] = design: species or system BALB/c mice; details: mouse, in vivo, sc
Protocol: In this example, BALB/c mice were purchased from Beijing Vital River Laboratory Animal Technology Co., Ltd. The blood concentration of PEG-mIFN-α4 was detected by double-antibody sandwich ELISA.
6-8 weeks old, SPF grade BALB/c mice (N=60, with fifty-fifty of male and female mice) were injected with a single injection of 1 μg/mouse PEG-mIFN-α4 subcutaneously on the back of the neck. Plasma samples were collected before the injection (0 h) and after the injection at 15 h, 24 h, 36 h, 48 h, 72 h, 96 h, 120 h, 168 h, 216 h, 264 h, 312 h, to determine the blood concentration. Phoenix WinNonlin 6.4 software was used to calculate the pharmacokinetic parameters.

[4] = system: transplanted liver cancer H22; test: Continuous vs intermittent administration, transplanted liver cancer H22 in mice, survival (Example 6); assay type: in vivo, BALB/c mice

Nc1ccn([C@@H]2O[C@H](CO)[C@@H](O)C2(F)F)c(=O)n1 [Gemcitabine, reference compound]
Mean tumor volume (Standard deviation) (liver cancer H22): 1619.3 (911.2) mm^3
Mean tumor volume (Standard deviation) (lung cancer LLC): 1466.6 (791.5) mm^3
Mean tumor volume (Standard deviation) (colorectal cancer CT26): 1558.2 (2225.2) mm^3
Mean tumor volume (Standard deviation) (melanoma B16): 2279.9 (807.6) mm^3
mortality rate ([1]; by day 41, PEG-mIFN-α4 1 microgram per mouse intermittent): 73.1%
Median survival period (Time after tumor inoculation, days) [1]: 21.5 days

B1: deglycosylated mIFN-α4: recombinant mouse interferon α4 expressed in Pichia pastoris, glycosyl groups removed with glycosidase (protein, UniProt P07351 25-186, looked up)
Interferon alpha-4: CDLPHTYNLGNKRALTVLEEMRRLPPLSCLKDRKDFGFPLEKVDNQQIQKAQAILVLRDLTQQILNLFTSKDLSATWNATLLDSFCNDLHQQLNDLKACVMQEPPLTQEDSLLAVRTYFHRITVYLRKKKHSLCAWEVIRAEVWRALSSSTNLLARLSEEKE
modifications: deglycosylated
notes: recombinant mouse interferon α4 expressed in Pichia pastoris, glycosyl groups removed with glycosidase
Specific activity [2]: 5.4×10^8 U/mg

B2: PEG-mIFN-α4: PEGylated recombinant mouse interferon α4: deglycosylated mIFN-α4 modified with 40 kD Y-type polyethylene glycol succinimide ester (YPEG-NHS) (protein, UniProt P07351 25-186, looked up)
Interferon alpha-4: B1 Interferon alpha-4
modifications: 40 kD Y-type PEG, deglycosylated
Specific activity [2]: 6.1×10^6 U/mg
Cl_F—obs [3]: 0.07 mL/h
T1/2 (elimination half-life) [3]: 28.3 h
Tmax (plasma concentration peak time) [3]: 24 h
Vz_F—obs [3]: 2.91 mL
Median survival period (Time after tumor inoculation, days) ([4]; continuous administration: 1 microgram per animal sc once every 48 hours, 21 times): 38 days and 38.0 days
Survival rate during the observation period ([4]; intermittent administration: 1 microgram per animal sc once every 48 hours for 3 times, suspended 144 hours, 4 rounds, Day 40 after tumor inoculation): 93.3% and 93.3%.
Mean tumor volume (Standard deviation) (liver cancer H22): 846.2 (592.0) mm^3
Mean tumor volume (Standard deviation) (lung cancer LLC): 4000.8 (2513.7) mm^3
Mean tumor volume (Standard deviation) (colorectal cancer CT26): 5283.7 (5030.5) mm^3
Mean tumor volume (Standard deviation) (melanoma B16): 1639.7 (979.5) mm^3
